Experimental data taken from patent US10494417B2, “Peptide inhibitors of BCR-ABL oligomerization” (University of Utah Research Foundation, priority 2014, dated 2019).
“Also recorded” adds a separate entry of the source.

Assays:
K562 cells [1] = assay: Proliferation/viability of transfected K562 cells (trypan blue exclusion); assay type: cell-based, human; conditions: for proliferation/viability of K562 cells: trypan blue exclusion
Experimental: K562 cells, human leukemia Bcr-Abl^+ cells (gifted from Kojo Elenitoba-Johnson, University of Michigan), were grown in RPMI 1640 media supplemented with 10% FBS, 1% penicillin-streptomycin-glutamine, and 0.1% gentamicin (complete medium). […] Transfections were carried out two days following cell passaging. Then, 2.0×10^6 cells were collected and transfected with 6 μg pf pEGFP, pEGFP-CC^mut3, pmCherry, or pmCherry-CC^mut3 according to the Cell Line Nucleofector Kit V protocol, program T-013, using the Amaxa Nucleofector II (Lonza Group, Basel, Switzerland).
Cell counts were performed using a standard light microscope.
Two days following cell passaging, 2.0×10^6 cells were collected by centrifugation at 500×g for 10 min for each transfection group. Following cell collection, 6 lig DNA (pEGFP, pEGFP-CC, pEGFP-CCmut3, pEGFP-Helix2WT, pEGFP-Helix2mut3, pmCherry, pmCherry-CCmut3, or pmCherry-CappedHelix2mut3) was transfected into cells according to the Cell Line Nucleofector® Kit V protocol (program T-013) using the Amaxa Nucleofector II (Lonza Group, Basel, Switzerland). Following transfection, the DNA/cell mixture was added to 10 mL Complete RPMI 1640 media and allowed to incubate at 37° C. for 24, 48, or 72 h until analysis, depending on the assay.
(§1) Forty-eight or 72 h following transfection, 100 μL of treated K562 or Ba/F3-p210 cells was mixed with 100 μL trypan blue solution (Life Technologies). The numbers of viable cells (those impermeable to the trypan blue dye) from four different quadrants in an INCYTO™ C-CHIP™ Neubauer hemacytometer (VWR International, Radnor, Pa., USA) were counted using a standard light microscope. Quadrant counts were then averaged to obtain the number of viable cells per mL. For experiments using the Helix2mut3 construct, counts were performed on one aliquot per transfection (n=3 in replicate). In experiments involving the CappedHelix2mut3 construct, counts were performed three times using separate 100 pt aliquots from one transfection (n=1 in triplicate).

Ba/F3-P210 cells = assay: Viability of transfected Ba/F3-p210 cells (trypan blue exclusion); assay type: cell-based, mouse; conditions: 72 h following transfection, vs mCherry control, n=1
Experimental: Two days following cell passaging, 3.0×10^6 cells were collected by centrifugation at 750×g for 10 min for each transfection group. Following collection, 4 μg DNA was transfected into cells according to the Cell Line Nucleofector® Kit V protocol (program X-001) using the Amaxa Nuelcofector II. Following nucleofection, the DNA/cell mixture was added to 500 μL plain RPMI and incubated for 20 min. After incubation, the 500 μL cell/DNA/RPMI mixture was added to complete RPMI 1640 media and allowed to incubate at 37° C. for 72 h until analysis.
as §1

K562 cells [2] = assay: Colony forming assay of transfected K562 cells; assay type: cell-based, human; conditions: for colony formation (transformative ability), in words: construct delivered as a gene by transfection, vs EGFP (and WT) control
Experimental: Both EGFP and EGFP-CC^mut3 were transfected into separate groups of cells on day 0. One day following transfection, 1.0×10^6 cells per treatment group were collected and re-suspended in 1.0 mL of PBS. Through serial dilutions, 1.0×10^3 cells in IMDM (Isocove's modified Dulbecco's media) with 2% FBS were seeded into methylcellulose medium in the absence of cytokines (MethoCult H4230 for K562 cells and MethoCult M3234 for p210 and p210-T315I cells) or in the presence of cytokines (MethoCult GF M3434 for parental Ba/F3 cells). Ponatinib was then added in the correct molar amounts (0, 100 pM, 1 nM, or 10 nM) to the methylcellulose medium. Colonies formed were counted after 7 days of incubation. All reagents were purchased from Stem Cell Technologies, Vancouver, BC, Canada. Assay was run three separate times (n=3) in duplicate.
Briefly, K562 or Ba/F3-p210 cells were transfected according to the protocol above. One day following transfection, 1.0×10^6 cells per transfection group were collected and re-suspended in sterile PBS. […] Finally, 1.1 mL of cell/methylcellulose mixture was seeded in duplicate and allowed to grow at 37° C. and 5% CO2 for 7 days. Colony formation was assessed by counting colonies in two 200 μm2 areas on the plate. Experiments were performed once in duplicate (n=1 in duplicate). All kit reagents and media were purchased from Stem Cell Technologies (Vancouver, BC, Canada).

K562 cells [3] = assay: Peptide internalization Western blot, K562 cells; assay type: cell-based, human; conditions: 30 μM, 1.5 hours, Western blot of cell lysates
Experimental: 1.0×10^6 cells resuspended in RPMI or DMEM were seeded in a CellStar 6 well plate (Sigma Aldrich). Cells were then treated with the peptides (CPP-CCmut3, CPP-CCwt, CCmut3, and CPP-His) at a final concentration 30 uM. This is a standard concentration used in cell-penetrating peptide studies. For the kinase activity Western blot, cells were treated with peptides for 16 hours.
For the internalization experiment, cells were treated with peptides for 1.5 hours followed by a 15 minute incubation at 37° C. with heparin sulfate, 0.5 mg/mL (a gift from Kuby Balagurunathan, University of Utah). Cells were centrifuged and resuspended in 1 mL plain RPMI. Trypsin was added to a final concentration of 0.1% w/v, and the cells were incubated at 37° C. for 10 minutes. At that time 1 mL FBS was added to neutralize the trypsin. Cells were then centrifuged at 500×g for 10 minutes, followed by 3 rounds of washes with 5 mL cold PBS.
For both kinase activity and internalization Western blots, cells were resuspended in 100 μL of RIPA lysis buffer (Cell Signaling, Danvers, Mass., USA) with 100× protease/phosphatase inhibitor added (Cell Signaling) and transferred into a pre-chilled microcentrifuge tube. Cells were then sonicated, centrifuged at 12,000×g for 15 minutes, and then the supernatant was transferred into a fresh, pre-chilled microcentrifuge tube. […]

B1: CCmut3: modified Bcr-Abl coiled-coil domain (residues 1-72) with mutations C38A, K39E, S41R, L45D, E48R, Q60E (protein)
chain: MVDPVGFAEAWKAQFPDSEPPRMELRSVGDIEQELERAEARIRRDEQRVNQERFRMIYLETLLAKEKKSYDR
proliferation/viability of K562 cells (K562 cells [1]; 48 h following transfection, vs EGFP control, n=3): statistically significant decrease in the proliferation of K562 cells | proliferation/viability of K562 cells (K562 cells [1]; 72 h following transfection, vs mCherry control, n=1): potent inhibition of cell proliferation | inhibition of cell proliferation of K562 cells (K562 cells [1]; transfected, vs EGFP and WT control (FIG. 9)): inhibits proliferation; also recorded: significantly greater inhibition | proliferation/viability of Ba/F3-p210 cells (Ba/F3-P210 cells): replicated to a similar extent | colony formation, of EGFP control (K562 cells [2]; 7 days after seeding, normalized to EGFP control, n=1 in duplicate): approximately 20% | decrease in the amount of colonies formed compared to EGFP (K562 cells [2]; CC^mut3 alone, no ponatinib, 7 days): 3 fold | colony formation (transformative ability), in words (K562 cells [2]): showed inhibitory activity | colony formation (transformative ability), in words (K562 cells [2]; listed as CC^mut3): inhibits colony formation; also recorded: significantly greater inhibition | internalization into cells (K562 cells [3]): unable to enter the cells; also recorded: not internalized; also recorded: did not enter
